T1: YcjW S258N (Escherichia coli K-12 MG1655, UniProt P77615 1-332, S258N)
T1 sequence: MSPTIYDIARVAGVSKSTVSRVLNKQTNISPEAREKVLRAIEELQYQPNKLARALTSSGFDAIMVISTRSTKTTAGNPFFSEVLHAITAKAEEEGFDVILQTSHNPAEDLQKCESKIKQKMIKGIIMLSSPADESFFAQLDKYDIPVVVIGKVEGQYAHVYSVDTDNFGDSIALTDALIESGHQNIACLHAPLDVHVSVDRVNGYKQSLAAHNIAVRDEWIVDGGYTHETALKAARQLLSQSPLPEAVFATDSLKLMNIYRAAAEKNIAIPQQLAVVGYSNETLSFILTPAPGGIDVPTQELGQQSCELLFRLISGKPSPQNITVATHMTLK

T2: YcjW (Escherichia coli K-12 MG1655, UniProt P77615 1-332)
T2 sequence: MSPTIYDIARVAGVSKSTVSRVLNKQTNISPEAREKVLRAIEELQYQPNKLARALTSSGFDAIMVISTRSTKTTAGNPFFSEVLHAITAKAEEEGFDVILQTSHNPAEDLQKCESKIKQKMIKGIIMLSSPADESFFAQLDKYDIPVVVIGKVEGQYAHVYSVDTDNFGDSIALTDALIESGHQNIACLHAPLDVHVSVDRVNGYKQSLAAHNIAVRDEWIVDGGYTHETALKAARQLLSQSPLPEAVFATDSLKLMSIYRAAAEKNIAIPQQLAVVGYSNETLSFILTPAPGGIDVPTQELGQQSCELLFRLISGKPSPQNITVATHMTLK


Assays:
Settings in all cases: protein: recombinant; tags: His-SUMO (pET28-SUMO), cleaved with SUMO protease; chain copies: 2; label: 32P 5' end (T4 PNK); blunt
YcjW S258N = biological target: T1, YcjW S258N; assay: EMSA; shift from DNA:protein 1:0.5; no free probe at 1:2; EMSA with 32P-labelled dsDNA; binding buffer as in cited ref 14, not given; sugars preincubated with protein 20 min at room temperature; protein stored in 20 mM Tris-Cl pH 8.0, 50 mM NaCl, 1 mM DTT
YcjW [1] = biological target: T2, YcjW; assay: as above
YcjW [2] = biological target: T2, YcjW; assay: EMSA; shift from about 1:0.5 DNA:protein, increasing with protein; EMSA with 32P-labelled dsDNA; binding buffer as in cited ref 14, not given; sugars preincubated with protein 20 min at room temperature; protein stored in 20 mM Tris-Cl pH 8.0, 50 mM NaCl, 1 mM DTT

Row | Binder | binding result (YcjW S258N) | binding result (YcjW [1]) | binding result (YcjW [2])
1 | narP EMSA probe (LL62/LL63) (dsDNA) DNA 1: GGTAACATTCACGCGCCTGGTAGCGTTACCAACGCTACGCTCAAACATAATGATTC DNA 2: GAATCATTATGTTTGAGCGTAGCGTTGGTAACGCTACCAGGCGCGTGAATGTTACC | binds | binds | 
2 | ycjM EMSA probe (LL58/LL59) (dsDNA) DNA 1: GAGTAGTCTCTCGTTTCATGGGACCGCTACCACGGAAAGGCAACATGAAAC DNA 2: GTTTCATGTTGCCTTTCCGTGGTAGCGGTCCCATGAAACGAGAGACTACTC |  |  | binds

— article PMC6599011, “Transcription factor YcjW controls the emergency H2S production in E. coli”
